# Assay results from publication PMC7954794 (2021).
# B1: S. cerevisiae Abp1 (full length; SH3 domain 535-592 mutated) / Hua2 (parent complex)
# chain 1: MALEPIDYTTHSREIDAEYLKIVRGSDPDTTWLIISPNAKKEYEPESTGSSFHDFLQLFDETKVQYGLARVSPPGSDVEKIIIIGWCPDSAPLKTRASFAANFAAVANNLFKGYHVQVTARDEDDLDENELLMKISNAAGARYSIQTSSKQQGKASTPPVKKSFTPSKSPAPVSKKEPVKTPSPAPAAKISSRVNDNNDDDDWNEPELKERDFDQAPLKPNQSSYKPIGKIDLQKVIAEEKAKEDPRLVQKPTAAGSKIDPSSDIANLKNESKLKRDSEFNSFLGTTKPPSMTESSLKNDDDKVIKGFRNEKSPAQLWAERKAKQNSGNAETKAEAPKPEVPEDEPEGEPDVKDLKSKFEGLAASEKEEEEMENKFAPPPKKSEPTIISPKPFSKPQEPVKAEEAEQPKTDYKKIGNPLPGMHIEADNEEEPEENDDDWDDDEDEAAQPPLPSRNVASGAPVQKEEPEQEEIAPSLPSRNSIPAPKQEEAPEQAPEEEIEEEAEEAAPQLPSRSSAAPPPPPRRATPEKKPKENPWATAEYDYDAAEDNELTFVENDKIINIEFVDDDWWLGELEKDGSKGLFPSNYVSLGN
# chain 2: MQQTKFGKMYLDHDSVVEYSEDEIVEADRITLGYKKRLSMIENQMRHLLEDFSLDVQQIEPILADLQKYYDAFLQLLQKRNKSLQCKRSTHQPVPSPMNSQTSTNAKVNLSGKLMKFQLNSVQKFDEENILRILQNKIEFEHYFQIDKGKKQKVLLLAVYQCLNGPTRLHKVLNIEGIIHNNSIRTILGKQVSSSKWTVFLYDVKLVLLAHRQDVPNLETSKMIVRYGDLFPCALYFKDHTAY
# Variants of: B1
# Test: DHFR protein-fragment complementation in yeast (Abp1-DHFR F[1,2] x partner-DHFR F[3]), deep mutational scanning, second methotrexate selection vs reference; S. cerevisiae, DHFR-PCA selection in liquid with methotrexate at 30 C, two 72 h selections (the score uses the second); reference = the pre-selection culture
row,Variant,screen value
1,chain 1 D566Y,"-2.1 DMS score: mean over two replicates of log2(f_test/f_ref + 0.5)/ln 2, minus the synonymous-codon median (not a log2 …"
2,chain 1 D566N,"-1.27 DMS score: mean over two replicates of log2(f_test/f_ref + 0.5)/ln 2, minus the synonymous-codon median (not a log2 …"
3,chain 1 D566E,"-1.31 DMS score: mean over two replicates of log2(f_test/f_ref + 0.5)/ln 2, minus the synonymous-codon median (not a log2 …"
4,chain 1 D566H,"-2.26 DMS score: mean over two replicates of log2(f_test/f_ref + 0.5)/ln 2, minus the synonymous-codon median (not a log2 …"
5,chain 1 L571K,"-0.248 DMS score: mean over two replicates of log2(f_test/f_ref + 0.5)/ln 2, minus the synonymous-codon median (not a log2 …"
6,chain 1 L571T,"-0.86 DMS score: mean over two replicates of log2(f_test/f_ref + 0.5)/ln 2, minus the synonymous-codon median (not a log2 …"
7,chain 1 L571H,"0.744 DMS score: mean over two replicates of log2(f_test/f_ref + 0.5)/ln 2, minus the synonymous-codon median (not a log2 …"
8,chain 1 L571V,"-0.465 DMS score: mean over two replicates of log2(f_test/f_ref + 0.5)/ln 2, minus the synonymous-codon median (not a log2 …"
9,chain 1 L571S,"-0.425 DMS score: mean over two replicates of log2(f_test/f_ref + 0.5)/ln 2, minus the synonymous-codon median (not a log2 …"
10,chain 1 L571I,"-0.705 DMS score: mean over two replicates of log2(f_test/f_ref + 0.5)/ln 2, minus the synonymous-codon median (not a log2 …"
11,chain 1 L571N,"-0.368 DMS score: mean over two replicates of log2(f_test/f_ref + 0.5)/ln 2, minus the synonymous-codon median (not a log2 …"
12,chain 1 V565T,"0.578 DMS score: mean over two replicates of log2(f_test/f_ref + 0.5)/ln 2, minus the synonymous-codon median (not a log2 …"
13,chain 1 N586H,"-1.55 DMS score: mean over two replicates of log2(f_test/f_ref + 0.5)/ln 2, minus the synonymous-codon median (not a log2 …"
14,chain 1 N586P,"-0.0573 DMS score: mean over two replicates of log2(f_test/f_ref + 0.5)/ln 2, minus the synonymous-codon median (not a log2 …"
15,chain 1 N586E,"-1.53 DMS score: mean over two replicates of log2(f_test/f_ref + 0.5)/ln 2, minus the synonymous-codon median (not a log2 …"
16,chain 1 N586K,"-1.55 DMS score: mean over two replicates of log2(f_test/f_ref + 0.5)/ln 2, minus the synonymous-codon median (not a log2 …"
17,chain 1 N586M,"2.45 DMS score: mean over two replicates of log2(f_test/f_ref + 0.5)/ln 2, minus the synonymous-codon median (not a log2 …"
18,chain 1 N586L,"-0.863 DMS score: mean over two replicates of log2(f_test/f_ref + 0.5)/ln 2, minus the synonymous-codon median (not a log2 …"
19,chain 1 N586I,"0.632 DMS score: mean over two replicates of log2(f_test/f_ref + 0.5)/ln 2, minus the synonymous-codon median (not a log2 …"
20,chain 1 S585N,"-0.135 DMS score: mean over two replicates of log2(f_test/f_ref + 0.5)/ln 2, minus the synonymous-codon median (not a log2 …"
21,chain 1 A545G,"-0.421 DMS score: mean over two replicates of log2(f_test/f_ref + 0.5)/ln 2, minus the synonymous-codon median (not a log2 …"
22,chain 1 D542T,"0.719 DMS score: mean over two replicates of log2(f_test/f_ref + 0.5)/ln 2, minus the synonymous-codon median (not a log2 …"
23,chain 1 D542H,"-0.15 DMS score: mean over two replicates of log2(f_test/f_ref + 0.5)/ln 2, minus the synonymous-codon median (not a log2 …"
24,chain 1 D542R,"-0.244 DMS score: mean over two replicates of log2(f_test/f_ref + 0.5)/ln 2, minus the synonymous-codon median (not a log2 …"
25,chain 1 F553M,"0.868 DMS score: mean over two replicates of log2(f_test/f_ref + 0.5)/ln 2, minus the synonymous-codon median (not a log2 …"

row,Variant,screen value
1,chain 1 N549F,"0.0612 DMS score: mean over two replicates of log2(f_test/f_ref + 0.5)/ln 2, minus the synonymous-codon median (not a log2 …"
2,chain 1 N549P,"-0.774 DMS score: mean over two replicates of log2(f_test/f_ref + 0.5)/ln 2, minus the synonymous-codon median (not a log2 …"
3,chain 1 N549M,"1.68 DMS score: mean over two replicates of log2(f_test/f_ref + 0.5)/ln 2, minus the synonymous-codon median (not a log2 …"
4,chain 1 N549T,"1.38 DMS score: mean over two replicates of log2(f_test/f_ref + 0.5)/ln 2, minus the synonymous-codon median (not a log2 …"
5,chain 1 N549W,"-2.49 DMS score: mean over two replicates of log2(f_test/f_ref + 0.5)/ln 2, minus the synonymous-codon median (not a log2 …"
6,chain 1 L590V,"-0.52 DMS score: mean over two replicates of log2(f_test/f_ref + 0.5)/ln 2, minus the synonymous-codon median (not a log2 …"
7,chain 1 L590M,"-0.242 DMS score: mean over two replicates of log2(f_test/f_ref + 0.5)/ln 2, minus the synonymous-codon median (not a log2 …"
8,chain 1 L590I,"0.43 DMS score: mean over two replicates of log2(f_test/f_ref + 0.5)/ln 2, minus the synonymous-codon median (not a log2 …"
9,chain 1 T552N,"-0.374 DMS score: mean over two replicates of log2(f_test/f_ref + 0.5)/ln 2, minus the synonymous-codon median (not a log2 …"
10,chain 1 T552S,"0.616 DMS score: mean over two replicates of log2(f_test/f_ref + 0.5)/ln 2, minus the synonymous-codon median (not a log2 …"
11,chain 1 T552D,"-0.688 DMS score: mean over two replicates of log2(f_test/f_ref + 0.5)/ln 2, minus the synonymous-codon median (not a log2 …"
12,chain 1 T552H,"-1.03 DMS score: mean over two replicates of log2(f_test/f_ref + 0.5)/ln 2, minus the synonymous-codon median (not a log2 …"
13,chain 1 T552G,"-0.255 DMS score: mean over two replicates of log2(f_test/f_ref + 0.5)/ln 2, minus the synonymous-codon median (not a log2 …"
14,chain 1 D567Q,"-2.97 DMS score: mean over two replicates of log2(f_test/f_ref + 0.5)/ln 2, minus the synonymous-codon median (not a log2 …"
15,chain 1 D567H,"-2.08 DMS score: mean over two replicates of log2(f_test/f_ref + 0.5)/ln 2, minus the synonymous-codon median (not a log2 …"
16,chain 1 W569Y,"-0.138 DMS score: mean over two replicates of log2(f_test/f_ref + 0.5)/ln 2, minus the synonymous-codon median (not a log2 …"
17,chain 1 D548Q,"0.195 DMS score: mean over two replicates of log2(f_test/f_ref + 0.5)/ln 2, minus the synonymous-codon median (not a log2 …"
18,chain 1 D548P,"1.53 DMS score: mean over two replicates of log2(f_test/f_ref + 0.5)/ln 2, minus the synonymous-codon median (not a log2 …"
19,chain 1 D548G,"-0.301 DMS score: mean over two replicates of log2(f_test/f_ref + 0.5)/ln 2, minus the synonymous-codon median (not a log2 …"
20,chain 1 D548H,"0.00293 DMS score: mean over two replicates of log2(f_test/f_ref + 0.5)/ln 2, minus the synonymous-codon median (not a log2 …"
21,chain 1 D548C,"0.141 DMS score: mean over two replicates of log2(f_test/f_ref + 0.5)/ln 2, minus the synonymous-codon median (not a log2 …"
22,chain 1 D548W,"-0.639 DMS score: mean over two replicates of log2(f_test/f_ref + 0.5)/ln 2, minus the synonymous-codon median (not a log2 …"
23,chain 1 D577T,"-0.226 DMS score: mean over two replicates of log2(f_test/f_ref + 0.5)/ln 2, minus the synonymous-codon median (not a log2 …"
24,chain 1 D577S,"0.3 DMS score: mean over two replicates of log2(f_test/f_ref + 0.5)/ln 2, minus the synonymous-codon median (not a log2 …"
25,chain 1 D577C,"-0.926 DMS score: mean over two replicates of log2(f_test/f_ref + 0.5)/ln 2, minus the synonymous-codon median (not a log2 …"

row,Variant,screen value
1,chain 1 S579E,"-0.235 DMS score: mean over two replicates of log2(f_test/f_ref + 0.5)/ln 2, minus the synonymous-codon median (not a log2 …"
2,chain 1 S579M,"-0.58 DMS score: mean over two replicates of log2(f_test/f_ref + 0.5)/ln 2, minus the synonymous-codon median (not a log2 …"
3,chain 1 S579L,"-0.943 DMS score: mean over two replicates of log2(f_test/f_ref + 0.5)/ln 2, minus the synonymous-codon median (not a log2 …"
4,chain 1 S579T,"0.556 DMS score: mean over two replicates of log2(f_test/f_ref + 0.5)/ln 2, minus the synonymous-codon median (not a log2 …"
5,chain 1 D544R,"0.711 DMS score: mean over two replicates of log2(f_test/f_ref + 0.5)/ln 2, minus the synonymous-codon median (not a log2 …"
6,chain 1 D544C,"1.15 DMS score: mean over two replicates of log2(f_test/f_ref + 0.5)/ln 2, minus the synonymous-codon median (not a log2 …"
7,chain 1 D544S,"0.42 DMS score: mean over two replicates of log2(f_test/f_ref + 0.5)/ln 2, minus the synonymous-codon median (not a log2 …"
8,chain 1 K558M,"-0.491 DMS score: mean over two replicates of log2(f_test/f_ref + 0.5)/ln 2, minus the synonymous-codon median (not a log2 …"
9,chain 1 K558R,"0.719 DMS score: mean over two replicates of log2(f_test/f_ref + 0.5)/ln 2, minus the synonymous-codon median (not a log2 …"
10,chain 1 K558V,"0.774 DMS score: mean over two replicates of log2(f_test/f_ref + 0.5)/ln 2, minus the synonymous-codon median (not a log2 …"
11,chain 1 K558A,"-0.817 DMS score: mean over two replicates of log2(f_test/f_ref + 0.5)/ln 2, minus the synonymous-codon median (not a log2 …"
12,chain 1 G591L,"-0.124 DMS score: mean over two replicates of log2(f_test/f_ref + 0.5)/ln 2, minus the synonymous-codon median (not a log2 …"
13,chain 1 G591K,"0.45 DMS score: mean over two replicates of log2(f_test/f_ref + 0.5)/ln 2, minus the synonymous-codon median (not a log2 …"
14,chain 1 G591F,"0.26 DMS score: mean over two replicates of log2(f_test/f_ref + 0.5)/ln 2, minus the synonymous-codon median (not a log2 …"
15,chain 1 A537C,"0.422 DMS score: mean over two replicates of log2(f_test/f_ref + 0.5)/ln 2, minus the synonymous-codon median (not a log2 …"
16,chain 1 E540R,"-2.88 DMS score: mean over two replicates of log2(f_test/f_ref + 0.5)/ln 2, minus the synonymous-codon median (not a log2 …"
17,chain 1 E540Y,"-2.86 DMS score: mean over two replicates of log2(f_test/f_ref + 0.5)/ln 2, minus the synonymous-codon median (not a log2 …"
18,chain 1 E540S,"-1.11 DMS score: mean over two replicates of log2(f_test/f_ref + 0.5)/ln 2, minus the synonymous-codon median (not a log2 …"
19,chain 1 E540T,"-0.981 DMS score: mean over two replicates of log2(f_test/f_ref + 0.5)/ln 2, minus the synonymous-codon median (not a log2 …"
20,chain 1 E540D,"0.44 DMS score: mean over two replicates of log2(f_test/f_ref + 0.5)/ln 2, minus the synonymous-codon median (not a log2 …"
21,chain 1 E540N,"-1.77 DMS score: mean over two replicates of log2(f_test/f_ref + 0.5)/ln 2, minus the synonymous-codon median (not a log2 …"
22,chain 1 E540Q,"-1.08 DMS score: mean over two replicates of log2(f_test/f_ref + 0.5)/ln 2, minus the synonymous-codon median (not a log2 …"
23,chain 1 E540G,"-1.94 DMS score: mean over two replicates of log2(f_test/f_ref + 0.5)/ln 2, minus the synonymous-codon median (not a log2 …"
24,chain 1 E547Y,"-0.85 DMS score: mean over two replicates of log2(f_test/f_ref + 0.5)/ln 2, minus the synonymous-codon median (not a log2 …"
25,chain 1 K576R,"0.467 DMS score: mean over two replicates of log2(f_test/f_ref + 0.5)/ln 2, minus the synonymous-codon median (not a log2 …"
